What was measured:
[1] = biological target: T1, CEACAM5 (Recombinant Human CEACAM-5/CD66e Protein) (Homo sapiens, UniProt P06731); assay: SPR (Biacore T200), CEA-V2122 on immobilised CEACAM5; type: binding
T1 construct: purchased R&D SYSTEMS
T1 sequence (P06731 35-702): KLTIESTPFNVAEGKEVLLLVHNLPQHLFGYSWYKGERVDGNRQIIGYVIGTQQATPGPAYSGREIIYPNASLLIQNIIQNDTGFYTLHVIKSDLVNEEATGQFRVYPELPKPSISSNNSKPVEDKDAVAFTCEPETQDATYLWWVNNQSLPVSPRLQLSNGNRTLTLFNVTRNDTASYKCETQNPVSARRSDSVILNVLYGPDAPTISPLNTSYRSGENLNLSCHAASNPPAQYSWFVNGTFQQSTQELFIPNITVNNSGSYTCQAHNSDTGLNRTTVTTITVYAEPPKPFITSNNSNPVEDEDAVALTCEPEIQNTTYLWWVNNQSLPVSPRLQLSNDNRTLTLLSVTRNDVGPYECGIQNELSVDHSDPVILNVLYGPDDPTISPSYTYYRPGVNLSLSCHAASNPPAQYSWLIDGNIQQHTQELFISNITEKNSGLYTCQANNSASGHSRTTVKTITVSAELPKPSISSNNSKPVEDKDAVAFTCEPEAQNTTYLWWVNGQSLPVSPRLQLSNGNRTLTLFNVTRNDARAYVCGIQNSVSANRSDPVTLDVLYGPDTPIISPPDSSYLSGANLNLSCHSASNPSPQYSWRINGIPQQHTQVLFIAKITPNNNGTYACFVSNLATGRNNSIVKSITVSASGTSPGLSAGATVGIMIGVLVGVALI

[2] = tested on: CEACAM5 on CEACAM5-positive MKN-45 cells and CEACAM5-negative DLD1 cells [CEACAM5陽性のヒト胃がん由来MKN-45細胞とCEACAM5陰性のヒト結腸がん由来DLD1細胞]; assay: Cell staining with FITC-labelled CEA-V2122 (In Cell Analyzer 6000); type: cell-based, human
[3] = SPR, Single-Cycle Kinetics, Bivalent Analyze fit, analyte CEA-V2122 1E-08 M to 6.25E-10 M

Molecule | KD (kd1/ka1) ([1]; SPR, Single-Cycle Kinetics, Bivalent Analyze fit, KD = kd1/ka1) | ka1 [1, 3] | kd1 [1, 3] | binding to CEACAM5 (in words) ([1]; from sensorgram and KD value, Fig. 3) | recognition of CEACAM5 on the cell membrane surface (in words) ([2]; 20 nM CEA-V2122-FITC, 4℃, 30 min, Fig. 5) | behaviour of CEACAM5 after CEA-V2122-FITC binding (in words) ([2]; MKN45 cells, time series, Fig. 6)
CEA-V2122: anti-CEACAM5 scFv joined by amino acid linker GGGGSGGGG to streptavidin variant V2122 (SEQ ID NO: 3) (protein) QVKLEQSGAEVVKPGASVKLSCKASGFNIKDSYMHWLRQGPGQRLEWIGWIDPENGDTEYAPKFQGKATFTTDTSANTAYLGLSSLRPEDTAVYYCNEGTPTGPYYFDYWGQGTLVTVSSGGGGSGGGGSGGGGSENVLTQSPSSMSVSVGDRVNIACSASSSVPYMHWLQQKPGKSPKLLIYLTSNLASGVPSRFSGSGSGTDYSLTISSVQPEDAATYYCQQRSSYPLTFGGGTKLEIKGGGGSGGGGAEAGITGTWSDQLGDTFIVTAGADGALTGTYENAVGGAESRYVLTGRYDSAPATDGSGTALGWTVAWKNNSKNAHSATTWSGQYVGGADAKINTQWLLTSGTTNANAWKSTLVGHDTFTKVKPSAASHHHHHH | 1.078E-12 | 3.208E+5 | 3.461E-7 | 強く結合する |  | 
CEA-V2122-FITC: CEA-V2122 labelled with FITC (Fluorescein Labeling Kit - NH2) (conjugate) QVKLEQSGAEVVKPGASVKLSCKASGFNIKDSYMHWLRQGPGQRLEWIGWIDPENGDTEYAPKFQGKATFTTDTSANTAYLGLSSLRPEDTAVYYCNEGTPTGPYYFDYWGQGTLVTVSSGGGGSGGGGSGGGGSENVLTQSPSSMSVSVGDRVNIACSASSSVPYMHWLQQKPGKSPKLLIYLTSNLASGVPSRFSGSGSGTDYSLTISSVQPEDAATYYCQQRSSYPLTFGGGTKLEIKGGGGSGGGGAEAGITGTWSDQLGDTFIVTAGADGALTGTYENAVGGAESRYVLTGRYDSAPATDGSGTALGWTVAWKNNSKNAHSATTWSGQYVGGADAKINTQWLLTSGTTNANAWKSTLVGHDTFTKVKPSAASHHHHHH |  |  |  |  | 細胞膜表面のCEACAM5を特異的に認識する | 細胞膜表面に滞留する
